{"source": "patent US20220332804A1", "about": "(CSL INNOVATION, published 2022)", "assay_in_all_cases": "SPR, antibody captured, C2 as analyte;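 further: biacore at 37 °C, anti-C2 mAbs held by immobilised goat anti-human IgG, C2 alanine or serine mutants injected, double-referenced sensorgrams fitted to a 1:1 kinetic or steady-state model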", "key": {"human C2 A326S": {"target": "T1, human C2 A326S (human, UniProt P06681 21-752)", "T1 sequence": "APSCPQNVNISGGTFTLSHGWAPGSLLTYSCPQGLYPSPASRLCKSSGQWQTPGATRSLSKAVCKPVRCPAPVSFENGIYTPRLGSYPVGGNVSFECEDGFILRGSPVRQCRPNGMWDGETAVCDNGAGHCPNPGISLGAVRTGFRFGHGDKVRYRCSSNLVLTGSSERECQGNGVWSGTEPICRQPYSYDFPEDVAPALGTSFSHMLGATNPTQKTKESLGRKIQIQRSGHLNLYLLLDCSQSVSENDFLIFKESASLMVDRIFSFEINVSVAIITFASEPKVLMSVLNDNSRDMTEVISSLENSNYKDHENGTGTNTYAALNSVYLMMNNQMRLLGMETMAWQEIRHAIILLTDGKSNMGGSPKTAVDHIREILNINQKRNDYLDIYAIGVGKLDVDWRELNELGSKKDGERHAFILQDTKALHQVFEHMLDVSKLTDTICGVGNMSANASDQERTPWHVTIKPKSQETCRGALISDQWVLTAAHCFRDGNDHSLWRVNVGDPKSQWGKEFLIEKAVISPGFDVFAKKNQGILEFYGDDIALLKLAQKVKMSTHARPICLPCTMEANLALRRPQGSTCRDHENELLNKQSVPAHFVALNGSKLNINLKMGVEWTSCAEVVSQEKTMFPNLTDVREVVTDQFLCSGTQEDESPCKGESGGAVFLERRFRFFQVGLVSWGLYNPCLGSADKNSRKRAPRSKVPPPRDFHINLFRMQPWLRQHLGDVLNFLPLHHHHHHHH", "method": "(§1) Surface plasmon resonance (SPR, Biacore) was used for all binding affinity analyses. In brief, goat anti-human IgG was directly immobilised onto the carboxymethyl dextran surface of CM5 sensorchips to approximately 12,000 RU using standard NHS/EDC chemistry at pH 5. The immobilised antibody surface was pre-conditioned with ten injections of polyclonal human IgG (Privigen 60 s) prepared at 1 μg/mL. Ligands (anti-C2 mAbs) were captured at the beginning of each cycle as described below. An adjacent spot or flow cell in which only Polyclonal IgG was capture was used as a reference surface. The goat anti-human IgG Fc antibody surface was regenerate in 100 mM H3PO4, injected for 45 seconds at the end of each cycle. Experiments were performed at 37° C. and the flow rate of each experiment was kept constant at 30 μL/min.\n(§2) Sensogram data was double-referenced against a reference anti-IgG surface (i.e. minus anti-C2 mAb) and blank buffer injections obtained within each experiment. The binding data was fit to 1:1 (kinetic or steady-state) model using local Rmax and null refraction index (RI=0) when appropriate. Buffers and solutions were filtered (0.22 μm) prior to use."}, "human C2 K329A": {"target": "T2, human C2 K329A (human, UniProt P06681 21-752)", "T2 sequence": "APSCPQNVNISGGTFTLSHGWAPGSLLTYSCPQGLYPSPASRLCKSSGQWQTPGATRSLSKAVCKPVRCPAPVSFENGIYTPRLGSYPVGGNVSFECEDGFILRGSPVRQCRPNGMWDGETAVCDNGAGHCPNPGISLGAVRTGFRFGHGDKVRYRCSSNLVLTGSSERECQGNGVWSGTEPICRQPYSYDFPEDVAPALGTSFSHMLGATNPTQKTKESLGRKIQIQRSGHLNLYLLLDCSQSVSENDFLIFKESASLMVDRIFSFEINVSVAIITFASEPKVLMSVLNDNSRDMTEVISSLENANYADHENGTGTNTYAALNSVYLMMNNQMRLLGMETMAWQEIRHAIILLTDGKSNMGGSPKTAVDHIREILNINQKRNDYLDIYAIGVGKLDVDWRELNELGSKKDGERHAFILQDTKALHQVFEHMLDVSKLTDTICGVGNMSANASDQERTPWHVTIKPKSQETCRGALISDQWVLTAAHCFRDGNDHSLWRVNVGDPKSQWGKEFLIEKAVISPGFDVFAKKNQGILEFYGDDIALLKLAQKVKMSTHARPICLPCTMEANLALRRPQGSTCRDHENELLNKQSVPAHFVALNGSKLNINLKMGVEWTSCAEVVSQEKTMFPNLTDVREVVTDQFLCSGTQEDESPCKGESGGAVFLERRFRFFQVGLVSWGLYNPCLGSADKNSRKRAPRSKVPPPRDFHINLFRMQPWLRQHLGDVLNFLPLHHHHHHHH", "method": "as §1, §2"}, "human C2 S278A": {"target": "T3, human C2 S278A (human, UniProt P06681 21-752)", "T3 sequence": "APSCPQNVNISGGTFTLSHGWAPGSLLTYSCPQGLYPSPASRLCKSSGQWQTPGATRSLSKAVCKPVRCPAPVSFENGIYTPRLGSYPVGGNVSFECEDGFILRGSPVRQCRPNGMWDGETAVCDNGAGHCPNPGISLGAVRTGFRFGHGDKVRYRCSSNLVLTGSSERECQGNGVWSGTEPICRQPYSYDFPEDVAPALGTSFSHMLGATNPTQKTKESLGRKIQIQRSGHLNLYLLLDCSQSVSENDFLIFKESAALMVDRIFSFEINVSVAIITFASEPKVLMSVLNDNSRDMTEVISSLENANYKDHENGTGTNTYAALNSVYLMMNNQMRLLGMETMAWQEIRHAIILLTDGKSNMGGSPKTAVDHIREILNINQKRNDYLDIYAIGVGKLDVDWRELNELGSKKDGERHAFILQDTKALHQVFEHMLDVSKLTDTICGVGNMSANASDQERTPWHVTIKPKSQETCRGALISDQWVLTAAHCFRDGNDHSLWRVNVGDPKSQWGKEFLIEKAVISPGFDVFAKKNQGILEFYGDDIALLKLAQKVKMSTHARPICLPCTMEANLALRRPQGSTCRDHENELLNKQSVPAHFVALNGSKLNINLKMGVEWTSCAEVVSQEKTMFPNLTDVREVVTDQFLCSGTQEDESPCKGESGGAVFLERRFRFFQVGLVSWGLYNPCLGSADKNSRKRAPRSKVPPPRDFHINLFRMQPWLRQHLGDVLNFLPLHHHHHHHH", "method": "as §1, §2"}, "human C2 L279A": {"target": "T4, human C2 L279A (human, UniProt P06681 21-752)", "T4 sequence": "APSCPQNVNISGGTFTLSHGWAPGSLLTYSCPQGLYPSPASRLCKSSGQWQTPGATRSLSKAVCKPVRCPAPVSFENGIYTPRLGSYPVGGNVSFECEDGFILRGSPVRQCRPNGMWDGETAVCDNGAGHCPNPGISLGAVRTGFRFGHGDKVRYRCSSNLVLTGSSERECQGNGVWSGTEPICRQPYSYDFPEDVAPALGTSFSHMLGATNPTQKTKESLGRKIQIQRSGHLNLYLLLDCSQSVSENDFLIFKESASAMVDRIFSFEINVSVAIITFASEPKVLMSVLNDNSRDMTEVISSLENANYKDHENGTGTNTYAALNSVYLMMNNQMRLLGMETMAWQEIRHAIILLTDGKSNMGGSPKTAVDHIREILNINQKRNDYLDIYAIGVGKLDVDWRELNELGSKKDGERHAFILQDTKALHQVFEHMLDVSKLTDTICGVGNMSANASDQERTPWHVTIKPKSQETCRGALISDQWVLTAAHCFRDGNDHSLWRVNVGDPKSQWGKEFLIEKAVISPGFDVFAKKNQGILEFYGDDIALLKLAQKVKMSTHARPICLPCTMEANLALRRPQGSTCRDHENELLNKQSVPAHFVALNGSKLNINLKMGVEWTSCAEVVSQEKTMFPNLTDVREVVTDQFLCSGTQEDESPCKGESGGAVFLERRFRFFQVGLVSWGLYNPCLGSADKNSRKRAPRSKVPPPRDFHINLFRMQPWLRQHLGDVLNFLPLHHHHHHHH", "method": "as §1, §2"}}, "data": [{"binder": "RF16-242 (antibody, human IgG4 S228P, lambda, V domains shown, pH-dependent anti-C2 antibody from a phage display library) VH: EVQLLQSGAEVKKPGESLKISCKGSGYSFTSYWIGWVRQMPGKGLEWMGIIYPGDSDTRYSPSFQGQVTISADKSISTAYLQWSSLKASDTAMYYCARRGHYGDYFDYWGQGTLVTVSS VL: SYELTQPPSVSVSPGQTARITCSGDALPKKYAYWYHQKSGQAPVLVIYEDRRRPSEIPERFSGSSSGTMATLTITGAQVEDEGVYFCYSRDRAGNQRVFGGGTQLTVLG", "values": [{"measurement": "Kd", "setting": "human C2 A326S", "value": 9.9, "unit": "nM"}, {"measurement": "Kd", "setting": "human C2 K329A", "value": 14.8, "unit": "nM"}, {"measurement": "Kd", "setting": "human C2 S278A", "value": 6.5, "unit": "nM"}, {"measurement": "Kd", "setting": "human C2 L279A", "value": 49.2, "unit": "nM"}]}]}
